Legend:
[1] = target: HA33 (full-length, residues M1–P293), expressed alone (Clostridium botulinum strain 62A (BoNT/A1-producing)) (UniProt P0DPR0); test: AUC
[2] = target: HA70 of BoNT/A (full-length, residues M1–N626) (Clostridium botulinum strain 62A (BoNT/A1-producing)); test: AUC
[3] = target: HA complex (HA70–HA17–HA33), recombinant, reconstituted in vitro (Clostridium botulinum strain 62A (BoNT/A1-producing)) (UniProt Q45871); test: […], pH 7.6 with 100 mM NaCl; […]
[4] = target: mini-HA complex (HA70^D3–HA17–HA33) (Clostridium botulinum strain 62A (BoNT/A1-producing)) (UniProt Q45871); test: […], pH 7.6 with 100 mM NaCl; […]

Q: How did the stoichiometry N [1] turn out when “HA33 (full-length, residues M1–P293), expressed alone (from UniProt P0DPR0 1-286) (natural protein)” was run?
A: 2

Q: “HA70 of BoNT/A (full-length, residues M1–N626) (natural protein)” was tested. Which stoichiometry N (HA70 chains in the oligomer) [2] did it give?
A: 3

Q: “HA complex (HA70–HA17–HA33), recombinant, reconstituted in vitro (from UniProt Q45871 1-293)” was tested. Which Kd [3] did it give?
A: 10.9 µM

Q: For “mini-HA complex (HA70^D3–HA17–HA33) (from UniProt Q45871 1-293)”, which Kd [4] is on record?
A: 23.1 µM
